Results taken from paper doi:10.1101/2023.07.25.550448 (bioRxiv, 2023).
Where “and” joins values, the source holds several entries; their conditions need not be identical. Equal entries are not always repeated. No end group written: not given here. *: point of attachment. Biotin = O=C1N[C@H]2[C@H](CS[C@H]2CCCCC(=O)*)N1

B1: Strep-HA-VCF1 WT (natural protein)
chain: not shown

Key:
[1] = target: T1, His6-p97 WT (human, UniProt P55072 1-806); experiment: SPR
[2] = target: T1, His6-p97 WT; experiment: mass photometry
[3] = target: T1, His6-p97 WT; experiment: pull-down

T1 sequence (P55072 whole entry): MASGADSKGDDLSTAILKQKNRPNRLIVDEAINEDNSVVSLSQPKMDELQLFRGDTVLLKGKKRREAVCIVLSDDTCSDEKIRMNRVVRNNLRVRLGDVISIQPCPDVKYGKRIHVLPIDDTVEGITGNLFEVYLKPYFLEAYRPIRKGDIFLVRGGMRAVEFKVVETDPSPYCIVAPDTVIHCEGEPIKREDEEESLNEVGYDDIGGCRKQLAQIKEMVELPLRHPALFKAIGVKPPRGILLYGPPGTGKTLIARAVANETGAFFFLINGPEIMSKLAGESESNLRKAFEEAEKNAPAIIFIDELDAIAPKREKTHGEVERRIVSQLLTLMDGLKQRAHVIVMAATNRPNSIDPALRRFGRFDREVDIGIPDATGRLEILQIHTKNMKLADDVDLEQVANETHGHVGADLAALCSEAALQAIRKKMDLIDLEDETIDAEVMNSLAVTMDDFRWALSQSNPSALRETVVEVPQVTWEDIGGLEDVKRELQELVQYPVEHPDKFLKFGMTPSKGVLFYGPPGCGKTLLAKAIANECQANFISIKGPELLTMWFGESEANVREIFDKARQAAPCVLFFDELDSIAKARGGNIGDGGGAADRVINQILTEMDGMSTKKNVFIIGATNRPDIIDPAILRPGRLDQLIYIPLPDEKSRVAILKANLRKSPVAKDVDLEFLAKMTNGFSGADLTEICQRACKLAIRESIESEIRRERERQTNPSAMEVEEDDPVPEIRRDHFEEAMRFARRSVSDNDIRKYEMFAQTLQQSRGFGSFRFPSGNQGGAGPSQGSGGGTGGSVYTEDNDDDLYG

Binder	Kd [1]	stoichiometry N [2]	binding result [3]
B1	~10 nM	2 VCF1 molecules per p97 hexamer and 3 VCF1 molecules per p97 hexamer	–
Biotin-NLTSEELRKRREAYFEKQQQK [VBM peptide (ATXN3, aa275-295)]	–	–	binds
Biotin-PTPDLEEKRAKLAEAAERRQKEAAS [VIM peptide (SVIP, aa14-39)]	–	–	binds
